Measured values from PMC10516637, “FANCD2 and RAD51 recombinase directly inhibit DNA2 nuclease at stalled replication forks and FANCD2 acts as a novel RAD51 mediator in strand exchange to promote genome stability” (Nucleic Acids Research, 2023).

Target: T1, His-tagged human FANCD2 purified from E. coli (human, UniProt Q9BXW9 1-1451)
T1 construct: human FANCD2; non-ubiquitinylated single band on a gel; also called FANCD2-His; hFANCD2; source: E. coli BL21(DE3) CodonPlus, purified (Ni-NTA, Q Sepharose, Superdex 200)
Experiment: pull-down; FLAG-DNA2 purified on M2 FLAG beads, incubated with purified FANCD2 (1 ug/ml) at 4 C for 1 h; washed with PBS 5 times; western blot; empty M2 beads as control
Details: both partners purified

T1 sequence (Q9BXW9 whole entry): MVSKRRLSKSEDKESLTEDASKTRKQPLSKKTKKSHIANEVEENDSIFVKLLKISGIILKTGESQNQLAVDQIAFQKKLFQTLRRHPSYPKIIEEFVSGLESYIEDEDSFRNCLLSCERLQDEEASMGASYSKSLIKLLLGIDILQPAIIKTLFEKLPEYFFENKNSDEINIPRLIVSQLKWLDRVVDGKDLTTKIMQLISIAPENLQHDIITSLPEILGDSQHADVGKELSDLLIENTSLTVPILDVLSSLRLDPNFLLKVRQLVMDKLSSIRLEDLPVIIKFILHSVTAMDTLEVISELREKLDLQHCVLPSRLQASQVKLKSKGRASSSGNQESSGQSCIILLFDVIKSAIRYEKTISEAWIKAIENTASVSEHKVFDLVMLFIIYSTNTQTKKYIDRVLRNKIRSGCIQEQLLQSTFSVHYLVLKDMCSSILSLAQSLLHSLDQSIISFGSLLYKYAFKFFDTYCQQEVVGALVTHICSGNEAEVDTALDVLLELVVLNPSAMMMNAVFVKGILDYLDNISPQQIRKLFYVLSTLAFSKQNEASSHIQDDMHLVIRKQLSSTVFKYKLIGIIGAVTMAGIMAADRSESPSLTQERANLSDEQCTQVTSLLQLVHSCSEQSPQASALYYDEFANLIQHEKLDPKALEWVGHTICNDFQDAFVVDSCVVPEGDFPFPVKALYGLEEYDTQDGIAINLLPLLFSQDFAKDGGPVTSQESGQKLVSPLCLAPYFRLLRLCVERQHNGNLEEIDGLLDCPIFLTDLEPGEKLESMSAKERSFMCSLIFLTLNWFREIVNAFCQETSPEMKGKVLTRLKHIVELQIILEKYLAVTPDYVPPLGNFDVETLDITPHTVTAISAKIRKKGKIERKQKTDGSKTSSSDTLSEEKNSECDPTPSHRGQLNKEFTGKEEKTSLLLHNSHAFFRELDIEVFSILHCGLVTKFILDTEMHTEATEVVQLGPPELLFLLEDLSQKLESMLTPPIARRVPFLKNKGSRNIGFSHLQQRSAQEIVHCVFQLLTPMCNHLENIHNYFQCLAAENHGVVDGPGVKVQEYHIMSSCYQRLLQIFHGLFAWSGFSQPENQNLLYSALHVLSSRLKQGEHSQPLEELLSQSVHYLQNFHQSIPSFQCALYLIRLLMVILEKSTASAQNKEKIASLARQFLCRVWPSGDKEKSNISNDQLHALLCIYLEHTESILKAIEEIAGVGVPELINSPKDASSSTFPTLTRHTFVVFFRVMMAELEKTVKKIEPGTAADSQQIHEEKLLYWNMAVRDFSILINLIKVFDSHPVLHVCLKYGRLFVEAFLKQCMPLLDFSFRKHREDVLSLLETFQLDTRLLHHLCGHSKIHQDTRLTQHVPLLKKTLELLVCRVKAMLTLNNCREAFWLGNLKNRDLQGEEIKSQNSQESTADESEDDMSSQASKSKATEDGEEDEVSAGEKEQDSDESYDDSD

B1: FLAG-tagged human DNA2 from 293T cells (enzyme, UniProt P51530 1-1060, looked up)
chain: MEQLNELELLMEKSFWEEAELPAELFQKKVVASFPRTVLSTGMDNRYLVLAVNTVQNKEGNCEKRLVITASQSLENKELCILRNDWCSVPVEPGDIIHLEGDCTSDTWIIDKDFGYLILYPDMLISGTSIASSIRCMRRAVLSETFRSSDPATRQMLIGTVLHEVFQKAINNSFAPEKLQELAFQTIQEIRHLKEMYRLNLSQDEIKQEVEDYLPSFCKWAGDFMHKNTSTDFPQMQLSLPSDNSKDNSTCNIEVVKPMDIEESIWSPRFGLKGKIDVTVGVKIHRGYKTKYKIMPLELKTGKESNSIEHRSQVVLYTLLSQERRADPEAGLLLYLKTGQMYPVPANHLDKRELLKLRNQMAFSLFHRISKSATRQKTQLASLPQIIEEEKTCKYCSQIGNCALYSRAVEQQMDCSSVPIVMLPKIEEETQHLKQTHLEYFSLWCLMLTLESQSKDNKKNHQNIWLMPASEMEKSGSCIGNLIRMEHVKIVCDGQYLHNFQCKHGAIPVTNLMAGDRVIVSGEERSLFALSRGYVKEINMTTVTCLLDRNLSVLPESTLFRLDQEEKNCDIDTPLGNLSKLMENTFVSKKLRDLIIDFREPQFISYLSSVLPHDAKDTVACILKGLNKPQRQAMKKVLLSKDYTLIVGMPGTGKTTTICTLVRILYACGFSVLLTSYTHSAVDNILLKLAKFKIGFLRLGQIQKVHPAIQQFTEQEICRSKSIKSLALLEELYNSQLIVATTCMGINHPIFSRKIFDFCIVDEASQISQPICLGPLFFSRRFVLVGDHQQLPPLVLNREARALGMSESLFKRLEQNKSAVVQLTVQYRMNSKIMSLSNKLTYEGKLECGSDKVANAVINLRHFKDVKLELEFYADYSDNPWLMGVFEPNNPVCFLNTDKVPAPEQVEKGGVSNVTEAKLIVFLTSIFVKAGCSPSDIGIIAPYRQQLKIINDLLARSIGMVEVNTVDKYQGRDKSIVLVSFVRSNKDGTVGELLKDWRRLNVAITRAKHKLILLGCVPSLNCYPPLEKLLNHLNSEKLIIDLPSREHESLCHILGDFQRE
notes: human DNA2 helicase/nuclease; also called FLAG-DNA2; hDNA2; source: 293T, over-expressed, purified (M2 FLAG beads, 3x FLAG peptide elution); HEK-293T, over-expressed, in lysate
**Q.** Does B1 bind?
**A.** binds
